± gives the uncertainty stated by the source.

This data set in a line: amyloid nucleation score (Sup35N fusion, yeast selection) (log enrichment); library NNK2; higher = more nucleation; inactive = no reads after selection. An outline of the steps:
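Growth for 7 days at 30°C on medium lacking adenine and uracil followed a 24-hour induction with 100 μM copper sulfate of psi-negative yeast expressing peptides of 20 random codons fused to Sup35N. Input and output plasmid inserts were sequenced with Illumina, and sequences with under 100 input reads were excluded. Nucleation score is the DiMSum log enrichment of output over input reads, centred on the mode score of non-aggregating sequences.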

GATGGLSVCELVRCSELNRG had an amyloid nucleation score of 0.985 ± 0.37.

Consider IVQLWIWGVVPPFSDISHAL, for which the amyloid nucleation score turned out to be 7.866 ± 0.05.

For the substance RFYIPLSYFMSEGDRSCKFI, the amyloid nucleation score is -0.642 ± 0.61. In the case of RLFDRSVLPLGLWVRCKIHW, the amyloid nucleation score was 0.28 ± 0.61. The substance LTFLYGVGVRFCRPSLVVQS gave an amyloid nucleation score of 0.2 ± 0.24.

Consider YICSFYEADRSTRCFLIFFF, for which the amyloid nucleation score is -1.23 ± 0.44. The substance HGHASFIRF yielded an amyloid nucleation score of 2.13 ± 0.2. VVHQVSVGHCWVSR: the amyloid nucleation score came out at 0.683 ± 0.21. Under LLEFWDHLVYSMIECNRKNV stands “inactive”.

As to SVQFRMIQDLRVAADGRPRA, the amyloid nucleation score is 5.545 ± 0.05. For FDYAQRWSQP, the amyloid nucleation score stood at 0.121 ± 0.49. On to TETAL, for which the amyloid nucleation score is -1.05 ± 0.61. LDSSMSTGNLRLCFFESICS registered an amyloid nucleation score of 0.232 ± 0.56.

In turn, SVRMVFIGNLSRGNWSALWS had an amyloid nucleation score of 7.627 ± 0.037. With YTGHFTSC, the amyloid nucleation score is -0.496 ± 0.48.

As to FKRDLMLYFCCSWCRKVCVY, the amyloid nucleation score is -0.432 ± 0.34. Under YVGLV stands -0.23 ± 0.22. In turn, CYHFCYYVLSLVWGQNPVIK registered an amyloid nucleation score of 0.108 ± 0.65. Under LNFWLHD stands 0.09 ± 1; under SYANCNLNVNTLREEVHERW, 0.268 ± 0.62. Under IRSKSWVVDTQFRPIDSLLV stands 0.646 ± 0.49; under NCYSRALYSPCSPFLLTN, -1.73 ± 0.41. CLGTWPNLLGSISTMYAD registered an amyloid nucleation score of 0.854 ± 0.53. In the case of CSPVLKSSFNALARKRMLAR it was 1.29 ± 0.35; in that of NDCGSNDRLSNTFFWFLLFG, 0.142 ± 0.65. SDVRVLNDQKSGVFC displayed an amyloid nucleation score of 0.706 ± 0.15. WYALNYTIPEPYWT showed an amyloid nucleation score of 0.881 ± 0.48. In turn, LVCYLMTMNSNGARSRGVPF returned an amyloid nucleation score of 5.99 ± 0.063. Under PAASLRLRELMRYDDWRGVA stands 0.03 ± 0.38; under FTYLIEARG, 1.02 ± 0.41; under MRWSYFDH, 0.921 ± 0.47. AYSDNTFRQCSISVL had an amyloid nucleation score of 0.218 ± 0.8. YIFSSVNERLCPALNGWHLD: the amyloid nucleation score result is “inactive”. Under YSAVKCFPYRLPLNYAQIGA stands 0.358 ± 0.53; under KGGSRLCNFRSATKLSGPLL, 0.597 ± 0.46. On to RGQTMNHALRAHW, for which the amyloid nucleation score stood at 0.639 ± 0.42. Turning to TWCMRMNCSAFRKGVVNYSR, the amyloid nucleation score was found to be 2.91 ± 0.078. MFTKDISGFLGVLGHVVVLG: the amyloid nucleation score is -0.237 ± 0.63. Under SVVGQKVGGR stands 0.487 ± 0.33; under GVEVKSNVWTVSGWESQTPQ, 1.89 ± 0.42; under QCMTKKLEISQY, -0.492 ± 1. In the case of TVWGQECYW it was 5.74 ± 0.077; in that of QYMLLMMC, 0.671 ± 0.6; in that of CEHDCSPTYDGLSYASFVRE, 0.219 ± 0.5. RTYSMGGIR: the amyloid nucleation score is -0.849 ± 1.1. STSRCMRLHWGTFNYCSNIF: the amyloid nucleation score is 0.721 ± 0.35. The substance GVPLLLRMTCSLCRIAFQE came in with an amyloid nucleation score of 4.28 ± 0.069. ECSHQIL came in with an amyloid nucleation score of -0.179 ± 0.63. For SRDAKRALFDLDHRTRWDHK, the amyloid nucleation score was 4.62 ± 0.079. In the case of FSFEMDISLWALWGYMRSDL it was “inactive”; in that of KLNCMRGLPGLCPRWFIIAC, 0.089 ± 1.1; in that of DFILGYVDS, -0.65 ± 1.

NSKGN gave an amyloid nucleation score of 0.112 ± 1.1. The substance KSDTMLRDYKKWVGHELYTR displayed an amyloid nucleation score of 0.066 ± 0.54. Turning to SVYLVG, the amyloid nucleation score was -0.271 ± 0.65. In the case of DGVNAFNR, the amyloid nucleation score amounted to 0.203 ± 0.2. NCVNPDYGLLQQLSRYLVVC displayed an amyloid nucleation score of -0.764 ± 0.64. For ATNNPVMNFAGLAKECFAYM, the amyloid nucleation score was -0.106 ± 0.79. As for CLSDNC, the amyloid nucleation score was -0.13 ± 0.74.

As to RSICVYTIRYLFSH, the amyloid nucleation score was -0.513 ± 0.3. Under FTFFIRYLERDWPRLL stands -0.549 ± 0.74. In the case of LRQGPTHFLYLGCYFVDAMR it was 7.119 ± 0.066; in that of AVFNGFKNNSLV, -0.146 ± 1. Regarding LCIDHYVDEMPSIRVVDFYF, the amyloid nucleation score stood at 0.741 ± 0.6. PKRSCLVLGYNIVITDMQAR had an amyloid nucleation score of 6.28 ± 0.067. On to ILAVRQV, for which the amyloid nucleation score turned out to be 0.054 ± 0.79.

The substance SYWNLRQVVSIDDCMQSTFN had an amyloid nucleation score of 0.058 ± 1.

In turn, LKAWYYSVYSRTVTYSPMLH registered an amyloid nucleation score of -1.03 ± 0.61. For SYACNRYKRMTAQIRNQGGM, the amyloid nucleation score came out at 0.225 ± 0.42. FKFKLGNGIMDGSRMGHWAL gave an amyloid nucleation score of 1.17 ± 0.47.

The substance GSDQNSCELSRRDIKKCMAL displayed an amyloid nucleation score of 0.504 ± 0.33. In turn, SGRYFRIRRPYEDCQGREVA returned an amyloid nucleation score of 1.22 ± 0.38. PSRVSVSYM gave an amyloid nucleation score of 2.69 ± 0.076. With SFCYLLSTISVTIALVKTRG, the amyloid nucleation score is -0.271 ± 0.5.

In turn, PTLVLKKAVEPTQENGSLTV yielded an amyloid nucleation score of 5.767 ± 0.051. For the substance ALMSCLLCVHWRLDSATGGR, the amyloid nucleation score stood at 5.64 ± 0.09. For VRYFGDILFMSALYNLAGFA, the amyloid nucleation score entry was “inactive”.

For RVYMRISFSLSLLIAMSNLI, the amyloid nucleation score is -0.315 ± 0.64.

As for NKVMGAEGCTGLEL, the amyloid nucleation score was -0.744 ± 0.28. Under VVFTGWYHEGWRVV stands 0.914 ± 0.18; under RDAGSGREL, “inactive”.

The substance SCNRRSSVVPWWWLTFRRWN yielded an amyloid nucleation score of -1.16 ± 1.1. Substance AVCITFLSSCAIFFDSPVRV returned an amyloid nucleation score of 6.409 ± 0.047.

AWACYSECQDIRGNYSEVVL: the amyloid nucleation score was -0.671 ± 0.48. With YFVGWCIYEVNAYISVPVVF, the amyloid nucleation score entry is “inactive”. As to PEWFGR, the amyloid nucleation score was determined as 0.588 ± 0.23. CRNRVDECSIWRD returned an amyloid nucleation score of -0.046 ± 1. For the substance TSYYLDL, the amyloid nucleation score was -1.31 ± 0.75.

DQALGGEMWWL came in with an amyloid nucleation score of -0.14 ± 0.45. Substance LRKIYFWWAATNALLEMRGW returned an amyloid nucleation score of 0.057 ± 0.38. DKCDMTSTIVSLLVSTPKWS registered an amyloid nucleation score of -0.142 ± 0.34. Substance YPKSLV showed an amyloid nucleation score of -0.698 ± 1.1. The substance RIRCIVGSVPCMAASKHDGR registered an amyloid nucleation score of 0.783 ± 0.22. The substance FWYSCR returned an amyloid nucleation score of -0.889 ± 0.41.

The substance GMSQAIVGVICSGIYLPEVR showed an amyloid nucleation score of 0.44 ± 0.37. Substance CPVLG displayed an amyloid nucleation score of 1.87 ± 0.32. In turn, DSFVIAVLQIIPYTLTQHSK returned an amyloid nucleation score of 1.7 ± 0.085. For the substance YALDL, the amyloid nucleation score worked out at 0.08 ± 0.55.

On to FPFLDGVVLSKEFYNLR, for which the amyloid nucleation score is -1 ± 1. With TVRRTRFLNNISFNGFNVFV, the amyloid nucleation score came to 7.383 ± 0.054. Under CFNTTNEMRSTSSWLRYGSV stands 3.83 ± 0.054. Turning to CCMCCNDYCRPCFREGVWIG, the amyloid nucleation score was -0.121 ± 1.1. DWCWAMDLYSFVFHCRLEAF: the amyloid nucleation score is -0.658 ± 1. In the case of FRHYSYRRWQSLHKIVGICH, the amyloid nucleation score entry is “inactive”. As to GINRKDKMSKCTDLVVFCLG, the amyloid nucleation score is -0.076 ± 0.33.

In turn, IKSIT yielded an amyloid nucleation score of -0.388 ± 1. KCHCRAMS: the amyloid nucleation score entry was “inactive”.

Consider NISHVVNLHAWLYRLL, for which the amyloid nucleation score came to 3.39 ± 0.13. Take QWQGQHLT: the amyloid nucleation score was -1.4 ± 1. In turn, GHSCLMVNNACSLDGHEESV registered an amyloid nucleation score of 1.16 ± 0.39. In the case of SCDVTHGGLRQSKHGSGESG it was 7.7 ± 0.083. Take FGYFYMKHLTPALMPYTGY: the amyloid nucleation score was -0.441 ± 1.1. Regarding GNKMGCLFIGYCGFCTTVRP, the amyloid nucleation score turned out to be 1.74 ± 0.15.

On to DGFVVASISWGSNFLVFFIY, for which the amyloid nucleation score result was “inactive”.

SLQGVM displayed an amyloid nucleation score of -1.04 ± 0.44. In the case of YTSGSTGRDLLPNMKRGSVV it was 4.36 ± 0.12; in that of FFTMCVAMYVVRSAYGMHN, -0.03 ± 0.44; in that of VRHGMSIFSCYPVTPTRLER, 0.266 ± 0.38.

TFRYVWLSHPV had an amyloid nucleation score of 3.63 ± 0.11. In turn, LTYLVADLL showed an amyloid nucleation score of -0.142 ± 0.79. Substance LFCSRQSTWPRDKGVFPWTI had an amyloid nucleation score of -0.916 ± 1.1. Turning to DSGFFWCV, the amyloid nucleation score entry was “inactive”. In the case of FYRGT, the amyloid nucleation score is -0.974 ± 0.55.

Consider ALSDCL, for which the amyloid nucleation score is -0.427 ± 0.45. For RFQLVSAMAFTYMVAR, the amyloid nucleation score was -0.211 ± 0.56. In the case of GNWMRYIFSKWARLWGWKTY it was “inactive”; in that of YCMCIFATLG, -0.398 ± 0.76. In the case of INTSELNVFRS, the amyloid nucleation score entry is “inactive”. Take GINVSYLFIPHVGKICGNYN: the amyloid nucleation score came to 7.151 ± 0.047. Take YEGLF: the amyloid nucleation score result is “inactive”. NSDISARCGSCVYLWYVSDD showed an amyloid nucleation score of 8.712 ± 0.048. For RWRIARMITPNLPELLSLYR, the amyloid nucleation score is 2.93 ± 0.059.

WYMQGTLTAMGRGQTQYLSC registered an amyloid nucleation score of 0.405 ± 0.64. With IRGYYYGMRYSDWGSC, the amyloid nucleation score was -0.06 ± 0.31.

For the substance VTRPMDDTRVRVSNCVDWII, the amyloid nucleation score amounted to 0.511 ± 0.38.

Take YLTFLNASTSRYKLSLVPRR: the amyloid nucleation score stood at 4.11 ± 0.082. In the case of LRVMSSISDDNAQEFDDFCV, the amyloid nucleation score was 3.75 ± 0.062. LQVVVMFCPSL had an amyloid nucleation score of 8.29 ± 0.024. Turning to GGVIVQYLPFSNYLRKQGSL, the amyloid nucleation score was -0.304 ± 0.39. Substance ACKRGTFQWNACLSPGSCGR gave an amyloid nucleation score of 0.902 ± 0.36.

On to RGGSIIYHALVRVVFFLSVY, for which the amyloid nucleation score is -1.01 ± 0.64. Under FVSSII stands -1.29 ± 0.39.

(Values after the supplement of paper PMC12042874.)
